T1: biotinylated human NKG2D (human, UniProt P26718 78-216, limits assumed, biotinylated (site not stated))
T1 construct: Surface-coated in biolayer interferometry (Octet); also called recombinant biotinylated NKG2D
T1 sequence (looked up): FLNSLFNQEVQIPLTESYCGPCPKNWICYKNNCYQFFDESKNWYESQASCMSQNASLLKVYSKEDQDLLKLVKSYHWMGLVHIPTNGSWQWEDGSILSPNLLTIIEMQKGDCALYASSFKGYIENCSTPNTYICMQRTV

T2: human NKG2D-Fc (human, UniProt P26718 78-216, limits assumed)
T2 construct: construct not described; also called human NKG2D-Fc reagent; not shown: Fc part
T2 sequence (looked up): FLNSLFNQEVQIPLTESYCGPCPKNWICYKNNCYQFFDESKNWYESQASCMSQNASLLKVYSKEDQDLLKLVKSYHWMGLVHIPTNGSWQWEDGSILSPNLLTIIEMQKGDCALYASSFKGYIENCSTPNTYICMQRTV


What was measured:
biotinylated human NKG2D [1] = biological target: T1, biotinylated human NKG2D; assay: BLI (Octet), Kd = kOFF/kON
biotinylated human NKG2D [2] = biological target: T1, biotinylated human NKG2D; assay: BLI (Octet), coated biotinylated human NKG2D, 100 nM analyte
human NKG2D-Fc [3] = biological target: T2, human NKG2D-Fc; assay: competition ELISA, 2 nM human NKG2D-Fc on coated WT sMICA
Text: (§1) As for the NKG2D ligands (NKG2DLs) in the above example, we attached polypeptides directly to each of these 4 modified α1-α2 NKG2DLs using a linker peptide. The 4 His-tagged proteins (SEQ ID NOs.: 131-134) were expressed in insect cells and purified to characterize their NKG2D binding affinities and kinetic binding parameters. Using a competitive binding ELISA, we determined the relative NKG2D binding affinities of the 4 modified α1-α2 variants.

human NKG2D-Fc [4] = biological target: T2, human NKG2D-Fc; assay: competition ELISA, human NKG2D-Fc on coated WT sMICA
Text: as §1

biotinylated human NKG2D [5] = biological target: T1, biotinylated human NKG2D; assay: BLI (Octet)
[6] = biological target: NKG2D receptor on NKL effector cells (human) (UniProt P26718); assay: cell-based or functional assay
integrin αVβ5 [7] = biological target: T3, integrin αVβ5 (UniProt P06756 31-992; P18084 24-719); assay: ELISA, coated integrin, anti-MICA-HRP
T3 construct: Coated on the ELISA plate

integrin αVβ3 [8] = biological target: T4, integrin αVβ3 (UniProt P06756 31-992; P05106 27-718); assay: ELISA, coated integrin, anti-MICA-HRP
T4 construct: Coated on the ELISA plate

integrin αVβ5 [9] = biological target: T3, integrin αVβ5; assay: phage ELISA, coated integrin, anti-M13-HRP
Description: The phage vectors were independently transformed into NEBαF′tet competent E. coli cells. Phages produced by the transformed cells were tittered and their concentrations adjusted by dilution to 10¹³ per ml. The ability of the soluble MICA molecules in each of the phage preparations was assayed by an ELISA using the intended target proteins, integrin αVβ3 or αVβ5, as capture agents on the ELISA plate. After the respective integrins were adhered to the bottoms of the wells of the ELISA plate, the wells were washed and blocked, as well known in the field. Each sample (100 μl) of phage preparation was added to wells containing αVβ3 or αVβ5, incubated and washed. The phages captured by the integrins were detected by HRP-conjugated antibody to the M13 phage coat developed with Ultra TMB-ELISA substrate and the optical densities read.

integrin αVβ3 [10] = biological target: T4, integrin αVβ3; assay: phage ELISA, coated integrin, anti-M13-HRP
integrin αVβ5 [11] = biological target: T3, integrin αVβ5; assay: phage ELISA, coated integrin, anti-M13-HRP; remark: listed apart in the source

T3 sequence (P06756 31-992, chain 1 of 2): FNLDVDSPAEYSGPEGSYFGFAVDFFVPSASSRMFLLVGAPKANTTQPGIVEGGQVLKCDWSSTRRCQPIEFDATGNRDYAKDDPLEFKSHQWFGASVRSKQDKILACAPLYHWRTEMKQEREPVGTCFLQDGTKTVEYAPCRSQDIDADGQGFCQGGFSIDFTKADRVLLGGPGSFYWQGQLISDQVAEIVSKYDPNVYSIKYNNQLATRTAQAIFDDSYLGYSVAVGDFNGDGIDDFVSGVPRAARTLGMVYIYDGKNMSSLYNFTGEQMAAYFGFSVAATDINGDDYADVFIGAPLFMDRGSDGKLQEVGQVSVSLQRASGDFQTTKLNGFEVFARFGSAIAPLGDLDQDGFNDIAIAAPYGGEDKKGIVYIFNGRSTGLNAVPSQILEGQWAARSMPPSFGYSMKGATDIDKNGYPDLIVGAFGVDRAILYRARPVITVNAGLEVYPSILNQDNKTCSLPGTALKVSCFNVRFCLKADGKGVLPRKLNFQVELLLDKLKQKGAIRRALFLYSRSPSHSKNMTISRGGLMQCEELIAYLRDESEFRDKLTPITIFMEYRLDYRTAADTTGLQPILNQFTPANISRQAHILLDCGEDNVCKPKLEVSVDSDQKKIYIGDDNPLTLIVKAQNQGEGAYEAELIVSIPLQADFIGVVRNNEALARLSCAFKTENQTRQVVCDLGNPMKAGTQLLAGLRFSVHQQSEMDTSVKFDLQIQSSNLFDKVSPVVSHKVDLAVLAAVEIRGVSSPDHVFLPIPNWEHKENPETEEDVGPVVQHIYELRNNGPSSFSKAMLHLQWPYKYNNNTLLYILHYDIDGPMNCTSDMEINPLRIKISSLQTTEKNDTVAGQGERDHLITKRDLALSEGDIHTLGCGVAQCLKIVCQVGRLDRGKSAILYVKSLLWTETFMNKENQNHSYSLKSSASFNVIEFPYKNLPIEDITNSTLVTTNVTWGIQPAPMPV
T3 sequence (P18084 24-719, chain 2 of 2): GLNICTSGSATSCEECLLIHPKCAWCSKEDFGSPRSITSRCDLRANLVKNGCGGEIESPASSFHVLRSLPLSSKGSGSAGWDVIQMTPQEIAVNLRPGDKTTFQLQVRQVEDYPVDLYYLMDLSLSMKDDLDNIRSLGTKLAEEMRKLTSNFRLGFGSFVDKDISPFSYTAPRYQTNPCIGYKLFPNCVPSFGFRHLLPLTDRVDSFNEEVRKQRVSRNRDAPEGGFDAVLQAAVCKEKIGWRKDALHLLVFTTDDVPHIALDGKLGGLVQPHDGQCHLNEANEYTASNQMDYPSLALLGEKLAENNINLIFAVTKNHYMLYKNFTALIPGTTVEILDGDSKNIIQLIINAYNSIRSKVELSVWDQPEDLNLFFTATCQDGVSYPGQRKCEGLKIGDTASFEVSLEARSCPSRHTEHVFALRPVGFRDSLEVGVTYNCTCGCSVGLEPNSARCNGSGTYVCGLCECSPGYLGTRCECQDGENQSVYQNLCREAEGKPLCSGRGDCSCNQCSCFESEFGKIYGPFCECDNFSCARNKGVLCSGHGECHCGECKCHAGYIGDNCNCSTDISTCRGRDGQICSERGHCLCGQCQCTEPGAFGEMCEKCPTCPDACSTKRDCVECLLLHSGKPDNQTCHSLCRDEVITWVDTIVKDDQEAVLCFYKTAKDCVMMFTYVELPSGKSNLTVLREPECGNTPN
T4 sequence (P06756 31-992, chain 1 of 2): as the sequence (P06756 31-992, chain 1 of 2) above
T4 sequence (P05106 27-718, chain 2 of 2): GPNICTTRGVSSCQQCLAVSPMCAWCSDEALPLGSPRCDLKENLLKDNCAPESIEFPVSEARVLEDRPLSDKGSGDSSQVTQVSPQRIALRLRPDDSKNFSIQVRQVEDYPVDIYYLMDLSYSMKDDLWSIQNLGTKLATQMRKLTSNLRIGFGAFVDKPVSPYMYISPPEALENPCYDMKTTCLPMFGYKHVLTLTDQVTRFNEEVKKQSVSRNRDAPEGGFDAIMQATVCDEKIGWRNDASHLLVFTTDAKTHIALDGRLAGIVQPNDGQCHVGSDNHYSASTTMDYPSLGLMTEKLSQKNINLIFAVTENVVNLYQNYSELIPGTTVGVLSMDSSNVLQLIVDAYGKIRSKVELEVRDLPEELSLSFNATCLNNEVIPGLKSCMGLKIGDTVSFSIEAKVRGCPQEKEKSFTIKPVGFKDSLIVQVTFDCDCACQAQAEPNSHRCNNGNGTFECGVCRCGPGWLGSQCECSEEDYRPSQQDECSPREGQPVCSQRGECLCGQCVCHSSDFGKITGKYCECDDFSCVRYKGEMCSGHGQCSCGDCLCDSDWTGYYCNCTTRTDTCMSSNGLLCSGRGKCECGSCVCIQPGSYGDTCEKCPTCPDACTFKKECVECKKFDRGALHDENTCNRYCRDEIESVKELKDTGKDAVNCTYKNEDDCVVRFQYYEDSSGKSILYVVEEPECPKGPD

Binder | Kd (biotinylated human NKG2D [1]) | koff (biotinylated human NKG2D [2]) | kon (biotinylated human NKG2D [2]) | IC50 (human NKG2D-Fc [3]) | αvβ3 signal (integrin αVβ3 [10]) | αvβ5 signal (integrin αVβ5 [11]) | also measured
WT α1-α2 domain soluble MICA protein (competitor and analyte) (ligand, also called wild-type (WT); WT MICA) EPHSLRYNLTVLSWDGSVQSGFLTEVHLDGQPFLRCDRQKCRAKPQGQWAEDVLGNKTWDRETRDLTGNGKDLRMTLAHIKDQKEGLHSLQEIRVCEIHEDNSTRSSQHFYYDGELFLSQNLETKEWTMPQSSRAQTLAMNVRNFLKEDAMKTKTHYHAMHADCLQELRRYLKSGVVLRRTVPPMVQVTRSEASGGSGDRVTITCRASQDVSTAVAWYQQKPGKAPKLLIYSASFLYSGVPSRFSGSGSGTDFTLTISSLQPEDFATYYCQQSYTTPPTFGQGTKVEIKGGSSRSSSSGGGGSGGGGEVQLVESGGGLVQPGGSLRLSCAASGFTFTSTGISWVRQAPGKGLEWVGRIYPTNGSTNYADSVKGRFTISADTSKNTAYLQMNSLRAEDTAVYYCARTYGIYDLYVDYTEYVMDYWGQGTLVTVSSGGSSRSSSSGGGGSGGGGDIQMTQSPSSLSASGGSGQITVTCRASGFYPWNITLSWRQDGVSLSHDTQQWGDVLPDGQGTYQTWVATRISQGEEQRFTCYMEHSGQHSTHPVPSGKGSHHHHHH | 13.8 nM | 0.0018 s⁻¹ | 130000 M⁻¹ s⁻¹ | 19.4 nM |  |  | 
WED-MICA (WED-α1-α2 domain; N69W, K152E, K154D) (designed binder, Whole entry as named) EPHSLRYNLTVLSWDGSVQSGFLTEVHLDGQPFLRCDRQKCRAKPQGQWAEDVLGNKTWDRETRDLTGWGKDLRMTLAHIKDQKEGLHSLQEIRVCEIHEDNSTRSSQHFYYDGELFLSQNLETKEWTMPQSSRAQTLAMNVRNFLKEDAMETDTHYHAMHADCLQELRRYLKSGVVLRRTVPPMVQVTRSEASGGSGDRVTITCRASQDVSTAVAWYQQKPGKAPKLLIYSASFLYSGVPSRFSGSGSGTDFTLTISSLQPEDFATYYCQQSYTTPPTFGQGTKVEIKGGSSRSSSSGGGGSGGGGEVQLVESGGGLVQPGGSLRLSCAASGFTFTSTGISWVRQAPGKGLEWVGRIYPTNGSTNYADSVKGRFTISADTSKNTAYLQMNSLRAEDTAVYYCARTYGIYDLYVDYTEYVMDYWGQGTLVTVSSGGSSRSSSSGGGGSGGGGDIQMTQSPSSLSASGGSGQITVTCRASGFYPWNITLSWRQDGVSLSHDTQQWGDVLPDGQGTYQTWVATRISQGEEQRFTCYMEHSGQHSTHPVPSGKGSHHHHHH |  |  |  | 4.4 nM |  |  | apparent Kd (pooled screen) (biotinylated human NKG2D [1]): 5.9 nM; apparent koff (pooled screen) (biotinylated human NKG2D [2]): 0.0017 s⁻¹; apparent kon (pooled screen) (biotinylated human NKG2D [2]): 290000 M⁻¹ s⁻¹
α1-α2 variant 15 (designed binder, His-tagged protein from insect cells, modified α1-α2 domain with an attached polypeptide) EPHSLRYNLTVLSWDGSVQSGFLTEVHLDGQPFLRCDRQKCRAKPQGQWAEDVLGNKTWDRETRDLTGWGKDLRMTLAHIKDQKEGLHSLQEIRVCEIHEDNSTRSSQHFYYDGELFLSQNLETNEWTMPQSSRAQTLAMNVRNFLKEDAMETDTHYHAMRADCLQELRRYLKSGVVLRRTVPPMVQVTRSEASGGSGDRVTITCRASQDVSTAVAWYQQKPGKAPKLLIYSASFLYSGVPSRFSGSGSGTDFTLTISSLQPEDFATYYCQQSYTTPPTFGQGTKVEIKGGSSRSSSSGGGGSGGGGEVQLVESGGGLVQPGGSLRLSCAASGFTFTSTGISWVRQAPGKGLEWVGRIYPTNGSTNYADSVKGRFTISADTSKNTAYLQMNSLRAEDTAVYYCARTYGIYDLYVDYTEYVMDYWGQGTLVTVSSGGSSRSSSSGGGGSGGGGDIQMTQSPSSLSASGGSGQITVTCRASGFYPWNITLSWRQDGVSLSHDTQQWGDVLPDGQGTYQTWVATRISQGEEQRFTCYMEHSGQHSTHPVPSGKGSHHHHHH | 1.5 nM | 0.00011 s⁻¹ | 70000 M⁻¹ s⁻¹ | 1.7 nM |  |  | fold better binding than WT NKG2DL (IC50) (human NKG2D-Fc [4]): 11 fold
α1-α2 variant 16 (designed binder, His-tagged protein from insect cells, modified α1-α2 domain with an attached polypeptide) EPHSLRYNLTVLSWDGSVQSGFLTEVHLDGQPFLRCDRQKCRAKPQGQWAEDVLGNKTWDRETRDLTGWGKDLRMTLAHIKDQKEGLHSLQEIRVCEIHEDNSTRSSQHFYYDGELFLSQNLETLEWTMPQSSRAQTLAMNVRNFLKEDAMETDTHYHAMRADCLQELRRYLKSGVVLRRTVPPMVQVTRSEASGGSGDRVTITCRASQDVSTAVAWYQQKPGKAPKLLIYSASFLYSGVPSRFSGSGSGTDFTLTISSLQPEDFATYYCQQSYTTPPTFGQGTKVEIKGGSSRSSSSGGGGSGGGGEVQLVESGGGLVQPGGSLRLSCAASGFTFTSTGISWVRQAPGKGLEWVGRIYPTNGSTNYADSVKGRFTISADTSKNTAYLQMNSLRAEDTAVYYCARTYGIYDLYVDYTEYVMDYWGQGTLVTVSSGGSSRSSSSGGGGSGGGGDIQMTQSPSSLSASGGSGQITVTCRASGFYPWNITLSWRQDGVSLSHDTQQWGDVLPDGQGTYQTWVATRISQGEEQRFTCYMEHSGQHSTHPVPSGKGSHHHHHH | 0.5 nM | 9e-05 s⁻¹ | 200000 M⁻¹ s⁻¹ | 0.7 nM |  |  | fold affinity increase relative to WT α1-α2 (biotinylated human NKG2D [5]): ~30 fold; fold reduction in the off-rate relative to WT (biotinylated human NKG2D [5]): 18 fold; fold better binding than WT NKG2DL (IC50) (human NKG2D-Fc [4]): 27 fold; NK-mediated lysis of FGFR3-expressing P815 cells (calcein release) [6]: 15 fold
soluble MICA generated from pKK35 (loop 3 insert His10sp) (designed binder) EPHSLRYNLTVLSWDGSVQSGFLTEVHLDGQPFLRCDRQKCRAKPQGQWAEDVLGNKTWDRETRDLTGNGKDLRMTLAHIKDQKEGLHSLQEIRVCEIHEDNSTRSSQHFYYDGELFLSQNLETKEWTMPQSSRAQTLAMNVRNFLKEDAMKTKTHYHAMHADCLQELRRYLKSGVVLRRTVPPMVNVTRSEASEGNITVTCRASGFYPWNITLSWRQDGVSLSHDTQQWGDVLPDGNGTYQTWVATRISGGSGGGSHHHHHHHHHHSGGSGGGCYMEHSGNHSTHPVPSGK |  |  |  |  |  |  | αvβ5 signal (integrin αVβ5 [7]): 0.392 OD; αvβ5 signal/ng (signal/ng MICA) (integrin αVβ5 [7]): 2.31; αvβ3 signal (integrin αVβ3 [8]): 0.419 OD; αvβ3 signal/ng (signal/ng MICA) (integrin αVβ3 [8]): 2.46
M13 phage pKK91 displaying MICA α3 domain with loop 3 insert His10sp (designed binder, also called 3-His10; not shown: C-terminal portion of M13 gene III protein, fused at codon position 198) TVPPMVNVTRSEASEGNITVTCRASGFYPWNITLSWRQDGVSLSHDTQQWGDVLPDGNGTYQTWVATRISGGSGGGSHHHHHHHHHHSGGSGGGCYMEHSGNHSTHPVPSGK |  |  |  |  | 0.303 OD |  | αvβ5 signal (integrin αVβ5 [9]): 0.078 OD
M13 phage pKK95 displaying MICA α3 domain with loop 1 insert 3.4 (designed binder, not shown: large carriers) TVPPMVNVTRSARGDSDHRVTCRASGFYPWNITLSWRQDGVSLSHDTQQWGDVLPDGNGTYQTWVATRICQGEEQRFTCYMEHSGNHSTHPVPSGK |  |  |  |  | 0.345 OD | 0.232 OD | 
M13 phage pKK100 displaying MICA α3 domain with loop 1 insert 3.2sp (designed binder, not shown: large carriers) TVPPMVNVTSGGSGGGSTSRGDHPRTQSGGSGGGVTCRASGFYPWNITLSWRQDGVSLSHDTQQWGDVLPDGNGTYQTWVATRICQGEEQRFTCYMEHSGNHSTHPVPSGK |  |  |  |  | 0.201 OD | 0.186 OD | 
M13 phage pKK109 displaying MICA α3 domain with tight loop 1 insert T-3.3 (designed binder, not shown: large carriers) TVPPMVNRVPRGDSDLTCRASGFYPWNITLSWRQDGVSLSHDTQQWGDVLPDGNGTYQTWVATRICQGEEQRFTCYMEHSGNHSTHPVPSGK |  |  |  |  | 0.23 OD | 0.167 OD | 
M13 phage pKK112 displaying MICA α3 domain with tight loop 1 insert T-AMY (loop 1 from tendamistat) (designed binder, not shown: large carriers) TVPPMVNYQSWRYSQCRASGFYPWNITLSWRQDGVSLSHDTQQWGDVLPDGNGTYQTWVATRICQGEEQRFTCYMEHSGNHSTHPVPSGK |  |  |  |  | 0.46 OD | 0.515 OD | 

From patent publication US20150165065A1 (AVIDBIOTICS, published 2015)
